# Data: patent publication US20050266008A1 (Bristol-Myers Squibb, published 2005)
# Where a chain is given by its changes, count along the chain named.
# T1: IRTA3 expressed on transfected CHO cells (full-length transmembrane form with N-terminal epitope tag) (human, UniProt Q96P31 18-734)
# T1 construct: also called CHO line expressing IRTA3
# T1 sequence: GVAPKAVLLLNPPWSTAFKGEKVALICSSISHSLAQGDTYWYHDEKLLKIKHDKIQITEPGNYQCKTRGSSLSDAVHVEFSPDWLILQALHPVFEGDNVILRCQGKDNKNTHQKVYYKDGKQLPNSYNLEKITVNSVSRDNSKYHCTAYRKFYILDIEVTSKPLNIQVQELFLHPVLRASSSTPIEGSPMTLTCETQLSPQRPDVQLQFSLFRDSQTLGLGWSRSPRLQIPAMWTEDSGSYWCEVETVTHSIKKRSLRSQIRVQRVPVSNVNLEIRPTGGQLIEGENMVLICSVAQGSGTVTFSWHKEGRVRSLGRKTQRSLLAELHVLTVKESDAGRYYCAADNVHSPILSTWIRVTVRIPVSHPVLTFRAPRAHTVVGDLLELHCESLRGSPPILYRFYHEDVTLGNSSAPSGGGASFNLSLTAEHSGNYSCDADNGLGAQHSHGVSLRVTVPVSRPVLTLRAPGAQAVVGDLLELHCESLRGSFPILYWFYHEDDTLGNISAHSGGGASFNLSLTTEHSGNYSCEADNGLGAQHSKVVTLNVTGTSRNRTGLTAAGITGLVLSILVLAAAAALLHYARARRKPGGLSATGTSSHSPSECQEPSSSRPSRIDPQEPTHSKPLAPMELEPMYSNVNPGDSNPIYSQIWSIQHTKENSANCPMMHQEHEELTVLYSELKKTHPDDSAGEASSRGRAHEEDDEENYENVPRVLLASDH
# T2: IRTA1 expressed on transfected CHO cells (full-length transmembrane form with N-terminal epitope tag) (human, UniProt Q96PJ5 20-515)
# T2 construct: also called CHO line expressing IRTA1
# T2 sequence: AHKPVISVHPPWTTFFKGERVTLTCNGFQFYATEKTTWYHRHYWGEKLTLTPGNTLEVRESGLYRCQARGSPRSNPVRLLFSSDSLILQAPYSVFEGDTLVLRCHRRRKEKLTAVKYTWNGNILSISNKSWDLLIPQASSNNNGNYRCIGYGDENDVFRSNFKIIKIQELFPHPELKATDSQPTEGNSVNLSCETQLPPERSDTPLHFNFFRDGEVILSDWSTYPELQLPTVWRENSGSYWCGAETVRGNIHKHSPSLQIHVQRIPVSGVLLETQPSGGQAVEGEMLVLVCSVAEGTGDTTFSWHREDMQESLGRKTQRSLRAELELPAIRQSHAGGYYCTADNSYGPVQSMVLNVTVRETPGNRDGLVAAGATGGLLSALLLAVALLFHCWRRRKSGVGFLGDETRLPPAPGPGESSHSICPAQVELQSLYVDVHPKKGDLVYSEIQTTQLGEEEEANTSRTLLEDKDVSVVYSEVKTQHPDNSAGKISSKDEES
# T3: IRTA2 expressed on transfected CHO cells (full-length transmembrane form with N-terminal epitope tag) (human, UniProt Q96RD9 16-977)
# T3 construct: also called CHO line expressing IRTA2
# T3 chain: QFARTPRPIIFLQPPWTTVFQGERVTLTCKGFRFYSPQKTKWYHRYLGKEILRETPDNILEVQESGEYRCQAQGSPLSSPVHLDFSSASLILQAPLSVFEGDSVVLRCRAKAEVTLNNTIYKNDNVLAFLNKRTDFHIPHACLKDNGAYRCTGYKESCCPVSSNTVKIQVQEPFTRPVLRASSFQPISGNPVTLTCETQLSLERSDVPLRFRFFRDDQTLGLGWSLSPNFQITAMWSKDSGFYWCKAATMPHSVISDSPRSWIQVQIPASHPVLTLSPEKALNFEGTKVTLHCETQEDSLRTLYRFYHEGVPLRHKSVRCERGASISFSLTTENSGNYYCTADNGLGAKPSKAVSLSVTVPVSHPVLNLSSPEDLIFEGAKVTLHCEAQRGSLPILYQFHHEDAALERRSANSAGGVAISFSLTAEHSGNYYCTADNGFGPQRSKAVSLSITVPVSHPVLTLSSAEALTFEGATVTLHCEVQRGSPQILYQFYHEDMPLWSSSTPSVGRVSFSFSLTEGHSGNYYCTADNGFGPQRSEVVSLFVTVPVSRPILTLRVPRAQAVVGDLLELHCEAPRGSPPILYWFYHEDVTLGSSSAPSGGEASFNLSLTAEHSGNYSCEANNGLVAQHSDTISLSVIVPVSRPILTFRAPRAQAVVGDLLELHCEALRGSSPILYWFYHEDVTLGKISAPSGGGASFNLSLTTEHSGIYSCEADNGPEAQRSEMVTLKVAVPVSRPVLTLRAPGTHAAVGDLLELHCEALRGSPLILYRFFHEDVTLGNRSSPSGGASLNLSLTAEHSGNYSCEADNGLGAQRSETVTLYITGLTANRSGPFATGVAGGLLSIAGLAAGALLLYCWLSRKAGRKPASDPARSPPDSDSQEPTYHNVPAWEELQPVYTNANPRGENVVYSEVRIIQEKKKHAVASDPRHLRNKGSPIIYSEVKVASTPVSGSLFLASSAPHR
# T4: IRTA4 expressed on transfected CHO cells (full-length transmembrane form with N-terminal epitope tag) (human, UniProt Q96LA5 20-508)
# T4 construct: also called CHO line expressing IRTA4
# T4 sequence: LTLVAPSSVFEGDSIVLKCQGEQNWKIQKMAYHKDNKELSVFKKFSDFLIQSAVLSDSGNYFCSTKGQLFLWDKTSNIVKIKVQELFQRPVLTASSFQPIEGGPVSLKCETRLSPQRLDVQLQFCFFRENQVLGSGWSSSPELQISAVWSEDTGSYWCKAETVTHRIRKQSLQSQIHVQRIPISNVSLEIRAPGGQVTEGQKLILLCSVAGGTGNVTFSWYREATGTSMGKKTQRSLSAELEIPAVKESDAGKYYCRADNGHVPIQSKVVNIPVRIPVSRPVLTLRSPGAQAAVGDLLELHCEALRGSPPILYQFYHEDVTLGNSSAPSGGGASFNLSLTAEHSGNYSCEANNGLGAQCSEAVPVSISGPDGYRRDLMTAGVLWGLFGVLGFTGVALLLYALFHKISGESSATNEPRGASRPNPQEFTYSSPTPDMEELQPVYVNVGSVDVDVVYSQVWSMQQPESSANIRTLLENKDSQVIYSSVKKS
# T5: IRTA5 protein as naturally expressed on human peripheral blood B lymphocytes and B cell tumor lines (human, UniProt Q96LA6 17-429)
# T5 construct: Endogenous protein on untransfected human cells; also called IRTA-5 on CD19+ B cells, Daudi, Ramos, SU-DHL-4
# T5 sequence: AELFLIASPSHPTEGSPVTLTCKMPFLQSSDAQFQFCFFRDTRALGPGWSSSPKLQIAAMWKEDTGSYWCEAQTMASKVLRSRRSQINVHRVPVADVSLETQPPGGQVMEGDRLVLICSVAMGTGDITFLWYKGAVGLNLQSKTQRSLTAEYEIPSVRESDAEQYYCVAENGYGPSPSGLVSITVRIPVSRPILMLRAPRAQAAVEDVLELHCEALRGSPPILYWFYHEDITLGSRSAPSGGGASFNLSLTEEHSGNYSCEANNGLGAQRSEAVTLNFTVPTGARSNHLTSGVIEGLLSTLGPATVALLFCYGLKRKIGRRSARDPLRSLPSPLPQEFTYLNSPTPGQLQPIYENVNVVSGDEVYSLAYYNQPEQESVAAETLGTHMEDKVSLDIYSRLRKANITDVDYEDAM
# T6: IRTA5 expressed on transfected CHO cells (full-length transmembrane form with N-terminal epitope tag) (human, UniProt Q96LA6 17-429)
# T6 construct: Neither the signal peptide limits nor the tag is stated; also called CHO line transfected with IRTA5; human IRTA-5
# T6 sequence: T5 sequence
# B1: human monoclonal antibody 2G5 (antibody, V domains shown)
# VH: QVQLVESGGGVVQPGRSLRLSCAASGFTFSDYGMHWVRQAPGKGLEWVAVIWYDGNNKYYADSVKGRFTISRDNSKNTLYLQMNSLRAEDTAVYYCARDWGRAFDIWGQGTMVTVSS
# VL: EIVLTQSPATLSLSPGERATLSCRASQSVSSYLAWYQQKPGQAPRLLIYDASNRATGIPARFSGSGSGTDFTLTISSLEPEDFALYYCQQLNNWPPYTFGQGTKLEIK
# notes: Fully human IgG with kappa light chain from an HCo7 HuMab Mouse hybridoma; also called IRTA5 HuMAb 2G5; biotinylated 2G5
# B2: human monoclonal antibody 7G8 (antibody, V domains shown)
# VH: DVHLVQSGGGLVHPGGSLRLSCAGSGFTFSTYTMHWIRQAPGKDLEWVSAIGTGGGTDYADSVKGRFTISRDNAKNSLYLQMNSLRAEDMAVYYCAREVYWYFDLWGRGTLVTVSS
# VL: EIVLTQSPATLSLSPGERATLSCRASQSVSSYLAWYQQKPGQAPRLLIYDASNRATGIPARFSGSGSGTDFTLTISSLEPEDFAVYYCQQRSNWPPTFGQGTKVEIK
# notes: Fully human IgG with kappa light chain from an HCo7 HuMab Mouse hybridoma; also called IRTA5 HuMAb 7G8; biotinylated 7G8
# B3: human monoclonal antibody 5A2 (antibody, V domains shown)
# VH: QVQVVESGGGVVQPGRSLRLSCAASGFTFSNYGMHWVRQAPGKGLEWVAGIWYDGSNKYYADSVKGRFTISRDNSKNTLYLQMNSLRAEDTAVYYCARESPNFDYWGQGTLVTVSS
# VL: B1 VL with L85V, L91R, Y97W, L105V
# notes: Fully human IgG with kappa light chain from an HCo7 HuMab Mouse hybridoma
# Tests used:
# [1] = biological target: T1, IRTA3 expressed on transfected CHO …; assay: flow cytometry on transfected CHO cells
# Text: (§1) Chinese hamster ovary (CHO) cell lines that express one of each of the five IRTA proteins at the cell surface were developed and used to determine the specificity of the IRTA5 HuMAbs by flow cytometry. CHO cells were transfected with expression plasmids containing full length cDNA encoding transmembrane forms of IRTA1, IRTA2, IRTA3, IRTA4, or IRTA5. In addition, the transfected proteins contained an epitope tag at the N-terminus for detection by an antibody specific for the epitope. Binding of the seven anti-IRTA5 HuMAbs was assessed by incubating the transfected cells with each of the IRTA5 Abs at a concentration of 10 μg/ml. The cells were washed and binding was detected with a FITC-labeled anti-human IgG Ab. A murine anti-epitope tag Ab, followed by labeled anti-murine IgG, was used as the positive control. Non-specific human and murine Abs were used as negative controls. The results are depicted in FIG. 9. The IRTA5 HuMAbs bound to the CHO line transfected with IRTA5 but not to CHO lines expressing IRTA1, 2, or 4 as measured by the mean fluorescent intensity (MFI) of staining.
# [2] = biological target: T2, IRTA1 expressed on transfected CHO …; assay: flow cytometry on IRTA1-CHO cells, FITC-labeled anti-human IgG
# Text: as §1
# [3] = biological target: T3, IRTA2 expressed on transfected CHO …; assay: flow cytometry on IRTA2-CHO cells, FITC-labeled anti-human IgG
# Text: as §1
# [4] = biological target: T4, IRTA4 expressed on transfected CHO …; assay: flow cytometry on IRTA4-CHO cells, FITC-labeled anti-human IgG
# Text: as §1
# [5] = biological target: T7, purified recombinant human IRTA5 fusion protein (human); assay: Biacore SPR; IRTA5 fusion protein amine-coupled to CM5 chip, antibody flowed at 267 nM, 1:1 Langmuir fit
# T7 construct: Amine-coupled to a CM5 chip in the Biacore kinetics; also called recombinant IRTA5 fusion protein
# Description: Anti-IRTA5 antibodies were characterized for affinities and binding kinetics by Biacore analysis (Biacore AB, Uppsala, Sweden). Purified recombinant human IRTA5 fusion protein was covalently linked to a CM5 chip (carboxy methyl dextran coated chip) via primary amines, using standard amine coupling chemistry and kit provided by Biacore. Binding was measured by flowing the antibodies in HBS EP buffer (provided by BIAcore AB) at a concentration of 267 nM at a flow rate of 50 μl/min. The antigen-ssociation antibodies association kinetics was followed for 3 minutes and the dissociation kinetics was followed for 7 minutes. The association and dissociation curves were fit to a 1:1 Langmuir binding model using BlAevaluation software (Biacore AB). To minimize the effects of avidity in the estimation of the binding constants, only the initial segment of data coressponding to association and dissociation phases were used for fitting.
# [6] = biological target: T5, IRTA5 protein as naturally expressed on …; assay: two-colour flow cytometry on human PBMC: biotinylated antibody plus FITC-streptavidin (FL1) against PE anti-CD19 (FL2)
# Description: CD19 is a cell surface marker that can be used to distinguish peripheral blood B lymphocytes. Human peripheral blood mononuclear cells were incubated with biotinylated 2G5, biotinylated 7G8, or an isotype control biotinylated human Ab. Cells were washed and were incubated with FITC-labeled streptavidin together with a phycoerythrin-labeled anti-CD19 antibody. Cells were washed and analyzed by flow cytometry. The results are depicted in FIG. 10A. Lymphocytes were gated as black “dots” and monocytes were gated as grey “dots”. Wavelengths were selected to screen for FITC (FL 1) and phycoerythrin (FL2) signaling. […] 2G5+ or 7G8+ cells (ordinate) were also predominantly CD19+, localizing to the double-positive, upper right quadrant.
# [7] = biological target: T6, IRTA5 expressed on transfected CHO …; assay: flow cytometry on IRTA5-CHO cells, antibody at 10 µg/ml, FITC-labeled anti-human IgG; the log y axis has no label on the sheet (MFI per the text)
# Text: as §1
# [8] = biological target: T5, IRTA5 protein as naturally expressed on …; assay: flow cytometry on Daudi and Ramos cells, PE anti-human secondary antibody
# Description: The cell lines were incubated with each of the IRTA5 HuMAbs or a control human antibody, washed and detected by a phycoerythrin-labeled anti-human secondary antibody. […] The remaining 6 IRTA5 HuMAbs show a similar binding pattern (data not shown).
binder,measurement,setting,value
B1,binding result,[1],no binding
same,binding result,[2],no binding (tested: 10 µg/ml)
same,binding result,[3],no binding (tested: 10 µg/ml)
same,binding result,[4],no binding (tested: 10 µg/ml)
same,Kd,[5],0.028 nM
same,koff,[5],4.3e-06 s⁻¹
same,kon,[5],152000 M⁻¹ s⁻¹
same,binding result,[6],binds
same,binding result,[7],binds
B2,binding result,[1],no binding
same,binding result,[2],no binding (tested: 10 µg/ml)
same,binding result,[3],no binding (tested: 10 µg/ml)
same,binding result,[4],no binding (tested: 10 µg/ml)
same,Kd,[5],16.8 nM
same,koff,[5],0.00121 s⁻¹
same,kon,[5],72000 M⁻¹ s⁻¹
same,binding result,[6],binds
same,binding result,[7],binds
B3,binding result,[1],no binding
same,binding result,[8],binds
same,binding result,[2],no binding (tested: 10 µg/ml)
same,binding result,[3],no binding (tested: 10 µg/ml)
same,binding result,[4],no binding (tested: 10 µg/ml)
same,Kd,[5],0.035 nM
same,koff,[5],8.7e-06 s⁻¹
same,kon,[5],252000 M⁻¹ s⁻¹
same,binding result,[7],binds
